What was measured:
[1] = H2O2 production, Amplex Red (AR) method; format: biochemical, Desulfovibrio vulgaris Hildenborough; conditions: aerobic DvH-FDH2 catalysis, AR assay
equine cytochrome c = experiment: Reduction of equine cytochrome c by DvH-FDH2; format: biochemical
[2] = Oxygen consumption (Clark-type O2 electrode oximetry); format: biochemical, Desulfovibrio vulgaris Hildenborough
[3] = H2O2 production, coumarin boronic acid (CBA) assay; format: biochemical, Desulfovibrio vulgaris Hildenborough; conditions: aerobic catalysis, formate between 1 and 10 Km
Method: Coumarin Boronic Acid (CBA) Assay. 10 mg of coumarin boronic acid (CBA) Cayman Chemicals 14051) was dissolved in 3.33 mL of DMSO. 101 μL of the CBA stock and 1.6 μL 0.5MDTPA were added to 3.9 mL 50 mM sodium phosphate pH 7.4 to produce a 2× working solution. The remaining steps essential identical to those used in the AR assay except that the plate was shaken at 400 rpm in an incubator (23° C.) for 15 min prior to CBA addition. Fluorescence detection was initiated by addition of 50 μL of the CBA 2× working solution, and the plate was scanned in fluorescence mode (excitation 332 nm and emission 470 nm). This method was also used in the context of redox bifurcation to quantify H2O2 production by DvH-FDH2 in the presence of 30 μM cytochrome c. Independently, the latter was incubated with H2O2 for the same duration (in the absence of DvH-FDH2) to assess the extent of peroxidase activity. Cytochrome c concentration was estimated as follows: oxidized ε410=106.1 mM^−1 cm^−1 and reduced ε550=29.5 mM^−1 cm^−1.
The following controls were common to both CBA and AR assays. (1) Heat-denatured DvH-FDH2, (2) addition of catalase (100 U/mL), (3) addition of SOD (10 U/mL), (4) FDH2 omitted, (5) fluorogenic substrate excluded, (6) formate excluded, and (7) buffer only.

[4] = Phenazine ethosulfate (PES)/dichlorophenolindophenol (DCPIP) assay of formate oxidation by DvH-FDH2; format: biochemical, Desulfovibrio vulgaris Hildenborough; conditions: PES/DCPIP-based
Text: FIG. 38. Experimental workflow for aerobic PES/DCPIP assay. Prepare cuvette (1), fill with reaction mix (2), add stirrer (3), initiate kinetics by the addition of DvH-FDH2 while the contents of the cuvette are being mixed (4), and continue data collection until completion (5). Blue arrows shown at the bottom in steps 4 and 5 denote stirring.
FIG. 39. Experimental workflow for anaerobic PES/DCPIP assay. Setup cuvette (1,2), add reaction mix (3), gas with argon (4), start the reaction by injecting DvH-FDH2 (5), and collect data until the reaction goes to completion (6). Blue arrows shown at the bottom in steps 4-6 represent stirring.
In this dye-linked assay, PES (Em,7=+65 mV) serves as the primary electron acceptor. Following its reduction by FDH2, PES nonenzymatically transfers electrons to a second dye, DCPIP, facilitating spectrophotometric detection.^91 Workflows are described in FIGS. 38 and 39. PES was chosen over PMS because of its long-term stability.^120 Furthermore, necessary precautions were taken in handling and preparing the reagents, including protecting the reagents from light.^187 DvH-FDH2 was assayed in 1 mM PES (Sigma-Aldrich P4544-1G)/93 μM DCPIP (98% pure; Acros 152870100) in 50 mM Tris pH 8.0. […] Assays were performed using a UV-2600i spectrophotometer (Shimadzu Life Sciences) equipped with T2 Peltier/stirrer accessory (Quantum) and monitored at 600 nm. […]

B1: DvH-FDH2 (protein)
chain 1: MRMPRRTFIKLASASAGALAFAGLGQSLAPTVARAAELKIAKAKVTPSVCCFCAVGCGLLVYTDTQTGRSINIEGDPDHPTNEGTLCPKGASIWQTTERSKRVTKVLYRAPGAAAWEEKSWDWALPRIARKIKETRDATFELTNDKGQTVNRTRGIASVGSAAVDNEEGWLMQAMMRALGLVYIESHARIUHSSTVGALAESYGRGAMTNHWIDLKNSDVILIMGSNAAENHPISFKWVTRAQERGATLIHVDPRFTRTSAKADIHAHIRSGTDIAFFGGLIRYIMENDLFFRQYVVDYTNASYIVGADYGFADGLFTGFDAEKGTYNTKKWAFAADENGMTLKDPTLNDPRCVFQLMKAHYARYDRKTVSDVTGISEEQLATLWSTFASTGKPDRAGTILYAMGQCQHTVGVQNIRALSMIQLLLGNIGIAGGGVNALRGESNVQGTTDISLLCDNLSGYLPTPKASWATFDDYVKGTTPVDKDPKSANWWSNRGKYLASYMKSVYPTASHQDGYLWHPKVDDGKITDYSWLQIFERMSKGGFKGAFVWGQNPCAGGANAGKNRKAMETLDWMVVVNLFENESSLFWKGPGVDPAKVKTEVFFLPACMSVEKGGSIANSGRWLQWREPGPKPMGDSRSDGDIVLDLYDEIRKLYREEKGAFPEPVLALDTDYRTDGKYDHHKVAKTLNGKFLTDVTIGDKTYKAGQQVPGFAMLQADGSTTSGCWIFTGCYTDAGNMMARRDRTQTPEQAAIGLFPNWSYAWPANRRILYNRAAVDMTGKPFDPKRAVIAWNGEKWVGDVPDGGWKPGEKLPFIMIREGRGQLFGPGRVDGPFPEHYEPFESPLESHPFSKQRVNPTALAFSHEPKAVRDKRYPFICTTYRVTEQWQSGTMTRNTGWLKEMQPEGFCEISRELAKELGIANGDAVVLESLRGKVQVVAIVTPRLKPFKVMGEVMHEVGIPWQFGWGQHVGKGDSANLLSPSVGDPNTGIPETKVFMVNLRKA
chain 2: MRPLGSLPQGMRRVSRRHIREAYMNGKTFFIDQTRCTACRGCQAACKQWKKFGSIETRNTGSYQNPPDLGPSTFKLVRFNEVEVDGKLKWLFFPEQCRHCLEPPCKMVADALIPGAIVQDAETGAVLYTEKTKGLDYMEVRSACPYDIPRQDPATGLLTKCNMCIDRVQNGMLPACVKTCPTGTMHFGDRADMLELAQKRLGEVKKRSPAALLADSDLVRVLYLCELAPANYHSHMVAEADTSRIGPFSRRALLRLRPFA
modifications: non-natural residues; left off: small tags and cut ends
In the case of B1, the “H2O2 produced per mole of formate oxidized” value [1] is reported as “roughly 0.75 mol”, the “native equine cytochrome c reduction” value (equine cytochrome c; anaerobic conditions) is reported as “stoichiometric reduction” and the “native equine cytochrome c reduced” value (equine cytochrome c; in air, 30 μM cytochrome c, 10 μM formate) is reported as ~80%. The “electron flux towards hydrogen peroxide generation (u/v value)” value ([2]; oximetry, catalase added after equilibrium) was ~80%, the “fraction of electrons from formate ending up in H2O2 (x/y value)” value ([2]; oximetry, catalase added after equilibrium, likely an underestimate) was “roughly one quarter” and the “O2 uptake lower in presence of catalase (initial velocities)” value ([2]; presence vs absence of catalase) was 50%. The H2O2 production [3] was 64±6% and the “kcat/Km for formate oxidation, fold higher than aerotolerant Mo-Cys-FDH from Rhodobacter capsulatus (NAD^+)” value [4] was ~500 fold.

Reference: patent publication US20250357519A1, “APPLICATIONS OF O2-INSENSITIVE FORMATE DEHYDROGENASE” (UNIVERSITY OF MARYLAND, BALTIMORE, priority 2022, published 2025)
